Literature values in publication PMC5969510, “Molecular mechanics of coiled coils loaded in the shear geometry” (Chemical Science, 2018).

Settings: unzip geometry
Source text: To overcome these limitations and to investigate the sequence–structure–mechanics relationship of coiled coils in more systematic detail, site-specific coupling strategies were used in more recent experiments so that the mechanical coordinate was precisely defined. Using coiled coil homodimers, the force was applied to both helices at the same terminus so that the coiled coils were mechanically loaded in the so-called ‘unzip’ geometry.[11],[17],[37],[38]

## vimentin: intermediate filament protein with coiled coil (literature)
  unzipping (unfolding) force: 8–15 pN
